From publication PMC3087504, “DNA Damage in Oocytes Induces a Switch of the Quality Control Factor TAp63α from Dimer to Tetramer”

T1: MBP-TAp63α (Mus musculus, UniProt O88898 40-680)
T1 sequence: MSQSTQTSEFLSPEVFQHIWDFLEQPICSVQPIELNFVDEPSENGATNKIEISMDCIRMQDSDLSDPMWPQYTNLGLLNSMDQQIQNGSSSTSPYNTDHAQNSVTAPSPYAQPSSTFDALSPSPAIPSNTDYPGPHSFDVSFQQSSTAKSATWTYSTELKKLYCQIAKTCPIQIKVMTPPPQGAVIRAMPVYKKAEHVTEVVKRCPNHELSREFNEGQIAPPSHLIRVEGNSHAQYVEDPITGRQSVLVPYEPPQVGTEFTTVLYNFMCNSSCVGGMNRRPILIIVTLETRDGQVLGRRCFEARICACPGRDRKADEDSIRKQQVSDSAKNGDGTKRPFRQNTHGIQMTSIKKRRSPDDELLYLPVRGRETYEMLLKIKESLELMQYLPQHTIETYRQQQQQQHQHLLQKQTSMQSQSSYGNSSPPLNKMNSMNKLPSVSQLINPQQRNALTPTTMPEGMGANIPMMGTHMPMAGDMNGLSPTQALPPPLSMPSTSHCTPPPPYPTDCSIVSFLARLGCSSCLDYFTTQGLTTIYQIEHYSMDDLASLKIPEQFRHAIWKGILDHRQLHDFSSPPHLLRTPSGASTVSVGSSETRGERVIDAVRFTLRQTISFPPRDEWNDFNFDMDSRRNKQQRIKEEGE

T2: MBP-TAp63αR (Mus musculus, UniProt O88898 40-680, R318H)
T2 sequence: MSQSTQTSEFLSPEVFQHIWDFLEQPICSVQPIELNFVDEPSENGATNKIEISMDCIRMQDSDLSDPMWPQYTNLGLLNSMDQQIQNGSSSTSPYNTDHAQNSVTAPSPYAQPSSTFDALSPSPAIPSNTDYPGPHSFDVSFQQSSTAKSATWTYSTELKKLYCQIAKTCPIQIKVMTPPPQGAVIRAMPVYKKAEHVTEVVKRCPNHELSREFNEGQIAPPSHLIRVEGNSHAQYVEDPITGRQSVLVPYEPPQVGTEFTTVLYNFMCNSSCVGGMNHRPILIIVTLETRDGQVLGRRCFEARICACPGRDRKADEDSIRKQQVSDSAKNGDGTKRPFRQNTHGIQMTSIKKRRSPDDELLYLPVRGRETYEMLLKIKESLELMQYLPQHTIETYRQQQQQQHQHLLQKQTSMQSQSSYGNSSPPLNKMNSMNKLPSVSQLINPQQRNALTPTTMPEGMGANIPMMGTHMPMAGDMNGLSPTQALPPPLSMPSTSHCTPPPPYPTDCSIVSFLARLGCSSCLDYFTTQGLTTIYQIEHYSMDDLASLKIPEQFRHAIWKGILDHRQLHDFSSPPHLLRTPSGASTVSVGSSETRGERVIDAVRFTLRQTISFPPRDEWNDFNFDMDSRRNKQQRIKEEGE


Assays:
MBP-TAp63α [1] = target: T1, MBP-TAp63α; experiment: fluorescence anisotropy; 300 nM DNA; 10 mM potassium phosphate pH 7.6, 200 mM NaCl, room temperature, 30 min; 15 nM p21 DNA (300 nM for controls), protein 0.1-15 µM monomer; details: protein: recombinant; tags: N-term MBP; C-term His6; chain copies: 2; label: 5'-fluorescein
MBP-TAp63αR = target: T2, MBP-TAp63αR; experiment: as above; details: protein: recombinant; tags: N-term MBP; C-term His6; chain copies: 4; label: 5'-fluorescein
MBP-TAp63α [2] = target: T1, MBP-TAp63α; experiment: fluorescence anisotropy; two-site fit, monomer concentration; second-site KD negative, uninterpreted; 10 mM potassium phosphate pH 7.6, 200 mM NaCl, room temperature, 30 min; 15 nM p21 DNA (300 nM for controls), protein 0.1-15 µM monomer; details: protein: recombinant; tags: N-term MBP; C-term His6; chain copies: 2; label: 5'-fluorescein

Binder | binding result (MBP-TAp63α [1]) | binding result (MBP-TAp63αR) | Kd (MBP-TAp63α [2])
random sequence (dsDNA) DNA 1: CGAGTTGTAAGTCGAATTGATACCATAATGCACTACACG DNA 2: CGTGTAGTGCATTATGGTATCAATTCGACTTACAACTCG | no binding | no binding | 
SELEX-based p63 binding sequence (dsDNA) DNA 1: CCTATTCTAGACATGTGAGGACATGTCGATACTTATTCC DNA 2: GGAATAAGTATCGACATGTCCTCACATGTCTAGAATAGG |  | no binding | 
p21 promoter response element (dsDNA) DNA 1: GGCAGGAACATGTCCCAACATGTTGAGCCG DNA 2: CGGCTCAACATGTTGGGACATGTTCCTGCC |  |  | 7.51 ± 1.32 µM
